Here are results for one molecule from patent US20200148732A1 (UNIVERSITY OF COPENHAGEN, published 2020).

One assay addresses T1, GFP-TONSL E568A (Homo sapiens, UniProt Q96HA7 1-1378).
T1 construct: also called TONSL E568A / GFP; not shown: N-terminal GFP tag
T1 sequence: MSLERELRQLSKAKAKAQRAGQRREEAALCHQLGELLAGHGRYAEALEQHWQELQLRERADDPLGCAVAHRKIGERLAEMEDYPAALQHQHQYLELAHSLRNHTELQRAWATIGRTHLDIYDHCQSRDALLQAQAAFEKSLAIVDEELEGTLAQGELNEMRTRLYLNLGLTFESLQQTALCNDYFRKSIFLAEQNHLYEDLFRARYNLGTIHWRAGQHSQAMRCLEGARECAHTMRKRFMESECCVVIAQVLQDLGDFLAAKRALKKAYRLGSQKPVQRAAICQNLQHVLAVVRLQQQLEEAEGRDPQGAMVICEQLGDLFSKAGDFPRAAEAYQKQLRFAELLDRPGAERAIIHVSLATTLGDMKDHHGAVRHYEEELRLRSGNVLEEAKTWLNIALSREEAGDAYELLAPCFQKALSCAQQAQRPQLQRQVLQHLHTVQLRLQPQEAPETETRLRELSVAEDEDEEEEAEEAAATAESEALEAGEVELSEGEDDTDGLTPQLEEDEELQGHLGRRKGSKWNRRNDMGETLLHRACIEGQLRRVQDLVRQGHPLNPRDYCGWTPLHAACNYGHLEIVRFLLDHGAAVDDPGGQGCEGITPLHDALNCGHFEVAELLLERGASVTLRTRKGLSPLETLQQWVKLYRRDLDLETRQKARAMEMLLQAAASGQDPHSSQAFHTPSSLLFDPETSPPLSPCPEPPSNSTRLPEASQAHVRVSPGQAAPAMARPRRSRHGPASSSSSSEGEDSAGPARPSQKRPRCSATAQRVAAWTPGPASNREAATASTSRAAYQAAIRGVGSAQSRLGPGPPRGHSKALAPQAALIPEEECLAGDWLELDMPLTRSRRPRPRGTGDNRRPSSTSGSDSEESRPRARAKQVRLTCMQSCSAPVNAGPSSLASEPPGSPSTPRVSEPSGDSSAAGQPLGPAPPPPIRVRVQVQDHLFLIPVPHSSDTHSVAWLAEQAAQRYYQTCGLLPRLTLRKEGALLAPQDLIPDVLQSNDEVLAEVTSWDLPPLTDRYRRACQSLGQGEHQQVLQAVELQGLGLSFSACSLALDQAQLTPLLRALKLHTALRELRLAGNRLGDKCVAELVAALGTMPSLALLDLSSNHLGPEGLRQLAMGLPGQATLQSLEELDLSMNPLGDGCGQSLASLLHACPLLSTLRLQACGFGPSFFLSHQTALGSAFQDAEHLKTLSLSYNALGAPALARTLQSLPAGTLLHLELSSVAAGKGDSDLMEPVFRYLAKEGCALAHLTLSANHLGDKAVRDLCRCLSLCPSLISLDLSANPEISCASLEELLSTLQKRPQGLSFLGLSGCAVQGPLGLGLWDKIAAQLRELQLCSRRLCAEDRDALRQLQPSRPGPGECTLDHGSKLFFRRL
Nature of the assay: GFP immunoprecipitation of GFP-TONSL from transfected HeLa S3 cells, western blot (co-IP; association may be indirect). In general terms: In western blotting, separated proteins are transferred to a membrane and probed.

The next assay deals with T2, GFP-TONSL D559A (Homo sapiens, UniProt Q96HA7 1-1378).
T2 construct: also called TONSL D559A / GFP; not shown: N-terminal GFP tag
T2 sequence: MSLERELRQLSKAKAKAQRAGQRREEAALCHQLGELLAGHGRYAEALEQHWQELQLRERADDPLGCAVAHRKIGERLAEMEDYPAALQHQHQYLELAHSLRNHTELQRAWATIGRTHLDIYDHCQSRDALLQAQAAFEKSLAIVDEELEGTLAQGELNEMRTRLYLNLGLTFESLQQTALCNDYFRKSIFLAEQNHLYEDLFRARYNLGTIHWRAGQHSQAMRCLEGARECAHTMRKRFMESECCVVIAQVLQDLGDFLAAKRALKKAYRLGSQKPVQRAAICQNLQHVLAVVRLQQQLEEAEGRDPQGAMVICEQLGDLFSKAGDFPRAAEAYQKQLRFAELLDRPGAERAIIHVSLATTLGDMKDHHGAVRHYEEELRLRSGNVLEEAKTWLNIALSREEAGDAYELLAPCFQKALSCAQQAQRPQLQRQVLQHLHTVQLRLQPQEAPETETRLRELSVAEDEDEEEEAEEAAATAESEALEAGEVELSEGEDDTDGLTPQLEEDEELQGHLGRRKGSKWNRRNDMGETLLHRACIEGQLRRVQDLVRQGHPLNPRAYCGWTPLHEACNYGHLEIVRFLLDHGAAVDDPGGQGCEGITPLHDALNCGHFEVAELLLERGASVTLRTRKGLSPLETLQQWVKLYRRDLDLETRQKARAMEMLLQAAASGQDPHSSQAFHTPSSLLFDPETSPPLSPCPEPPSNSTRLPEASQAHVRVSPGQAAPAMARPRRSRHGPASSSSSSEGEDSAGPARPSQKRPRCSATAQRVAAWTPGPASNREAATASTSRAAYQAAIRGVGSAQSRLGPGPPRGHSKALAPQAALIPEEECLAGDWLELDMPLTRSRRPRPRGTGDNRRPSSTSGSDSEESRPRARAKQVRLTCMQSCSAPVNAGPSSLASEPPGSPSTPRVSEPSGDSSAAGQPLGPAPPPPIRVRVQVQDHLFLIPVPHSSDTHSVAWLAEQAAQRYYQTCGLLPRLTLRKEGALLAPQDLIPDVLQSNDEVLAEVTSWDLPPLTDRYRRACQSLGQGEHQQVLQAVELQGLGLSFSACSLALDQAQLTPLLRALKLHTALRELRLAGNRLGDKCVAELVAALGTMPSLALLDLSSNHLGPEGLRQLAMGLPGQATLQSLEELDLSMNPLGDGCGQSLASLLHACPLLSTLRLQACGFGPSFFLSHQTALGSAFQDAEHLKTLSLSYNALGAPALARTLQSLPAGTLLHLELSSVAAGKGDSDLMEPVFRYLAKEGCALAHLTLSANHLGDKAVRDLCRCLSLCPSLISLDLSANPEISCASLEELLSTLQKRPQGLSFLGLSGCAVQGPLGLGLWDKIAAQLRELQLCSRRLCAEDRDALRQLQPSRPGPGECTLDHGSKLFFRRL
Described as above.

B1: MMS22L (endogenous, in cell extracts) (other, UniProt Q6ZRQ5 1-1243, looked up)
chain: MENCSAASTFLTDSLELELGTEWCKPPYFSCAVDNRGGGKHFSGESYLCSGALKRLILNLDPLPTNFEEDTLEIFGIQWVTETALVNSSRELFHLFRQQLYNLETLLQSSCDFGKVSTLHCKADNIRQQCVLFLHYVKVFIFRYLKVQNAESHVPVHPYEALEAQLPSVLIDELHGLLLYIGHLSELPSVNIGAFVNQNQIKLFPPSWHLLHLHLDIHWLVLEILYMLGEKLKQVVYGHQFMNLASDNLTNISLFEEHCETLLCDLISLSLNRYDKVRSSESLMSDQCPCLCIKELWVLLIHLLDHRSKWFVSESFWNWLNKLLKTLLEKSSDRRRSSMPVIQSRDPLGFSWWIITHVASFYKFDRHGVPDEMRKVESNWNFVEELLKKSISVQGVILEEQLRMYLHCCLTLCDFWEPNIAIVTILWEYYSKNLNSSFSISWLPFKGLANTMKSPLSMLEMVKTCCCDKQDQELYKSSSSYTIFLCILAKVVKKAMKSNGPHPWKQVKGRIYSKFHQKRMEELTEVGLQNFFSLFLLLAAVAEVEDVASHVLDLLNFLKPAFVTSQRALIWKGHMAFLLMYAQKNLDIGVLAEKFSCAFREKAKEFLVSKNEEMVQRQTIWTLLSIYIDGVQEVFETSYCLYPSHEKLLNDGFSMLLRACRESELRTVLSFLQAVLARIRSMHQQLCQELQRDNVDLFVQSSLSAKERHLAAVASALWRHFFSFLKSQRMSQVVPFSQLADAAADFTLLAMDMPSTAPSDFQPQPVISIIQLFGWDDIICPQVVARYLSHVLQNSTLCEALSHSGYVSFQALTVRSWIRCVLQMYIKNLSGPDDLLIDKNLEEAVEKEYMKQLVKLTRLLFNLSEVKSIFSKAQVEYLSISEDPKKALVRFFEAVGVTYGNVQTLSDKSAMVTKSLEYLGEVLKYIKPYLGKKVFSAGLQLTYGMMGILVKSWAQIFATSKAQKLLFRIIDCLLLPHAVLQQEKELPAPMLSAIQKSLPLYLQGMCIVCCQSQNPNAYLNQLLGNVIEQYIGRFLPASPYVSDLGQHPVLLALRNTATIPPISSLKKCIVQVIRKSYLEYKGSSPPPRLASILAFILQLFKETNTDIYEVELLLPGILKCLVLVSEPQVKRLATENLQYMVKACQVGSEEEPSSQLTSVFRQFIQDYGMRYYYQVYSILETVATLDQQVVIHLISTLTQSLKDSEQKWGLGRNIAQREAYSKLLSHLGQMGQDEMQRLENDNT
As to B1, the binding result in the assay with GFP-TONSL E568A and with GFP-TONSL D559A was “binds” in each case.
